Data: the supplement of paper PMC10201428
± gives the standard deviation of the averaged measurements.

B1: library; a variant is named by its letters at N, in order (parent)
chain: AATGTTGTTGATGCAACCATAAAGTGATATTTAATAATTATTTATAATCAGCAACTTAACCACAAAACAACCATATATTGATATNTCACAAAACAACCATAANTTGATATTTTTGTGAATCGAGTATTTCAGCAAAACTACTGCAGTAAGAA

What was measured:
[1] = variants of: B1; assay: relative integration efficiency (T-LR orientation) vs wild-type transposon end (log2 (normalized fold change)); transposon end mutated: left end; higher = more efficient transposition; conditions: with VchCAST RNA-guided transposition machinery (E. coli BL21(DE3) host, lacZ target)
Protocol: (§1)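 Pooled, barcoded VchCAST (Tn6677) mini-transposon donor libraries; each variable transposon-end sequence sits in a fixed pDonor mini-transposon context (10-bp barcode and cargo not included). Left- or right-end libraries were co-transformed with pEffector (TniQ-Cascade, TnsABC, lacZ crRNA, T7, 0.1 mM IPTG) into E. coli BL21(DE3) and grown 18 h at 37 C. T-LR and T-RL junction amplicons were sequenced; output/input barcode fold change was normalised to the mean of four wild-type barcodes and log2-transformed. Two biological replicates; zero-count/undetected variants carry floor values (-10 / -15), censored here. Barcode uncoupling by PCR recombination adds noise.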

[2] = variants of: B1; assay: relative integration efficiency (T-RL orientation) vs wild-type transposon end (log2 (normalized fold change)); transposon end mutated: left end; higher = more efficient transposition; conditions: with VchCAST RNA-guided transposition machinery (E. coli BL21(DE3) host, lacZ target)
Protocol: as §1

| Variant | relative integration efficiency (log2) [1] | relative integration efficiency (log2) [2] |
| --- | --- | --- |
| CA A16C G24T T30A T104G T113A | -0.245 ± 0.15 | -0.185 ± 0.23 |
| TA T76A T78G C87A T104G T113A | -0.127 ± 0.0086 | -0.3 ± 0.22 |
| CC A102T | 0.202 ± 0.2 | -0.155 ± 0.12 |
| TA A22T G24T T31C A33C A70C T76A T86G A96C T110A T113A | 0.00776 ± 0.18 | -0.657 ± 0.25 |
| TA G24A T30A T76A T78A T84A C87A A96C T112G T113C | 0.461 ± 0.4 | 0.172 ± 0.12 |
| TA A23G G24T A33T A70C T76A T84A C87A A96C T112G T113C | 0.304 ± 0.89 | 0.137 ± 0.19 |
| TG A16C G24T T32G A33C T76A T78A T84A C87A | -0.658 ± 0.78 | -0.572 ± 0.34 |
| TG A16C G24T T32G A33C A70C T76A T84A C87A | -0.64 ± 0.74 | -0.378 ± 0.44 |
| TA A23G G24T A33T T76A A77G C87T A96C T112G T113C | -0.402 ± 0.62 | -0.2 ± 0.18 |
| TA A23G G24T A33T A70C T76A T86G A96C T112G T113C | -0.361 ± 0.74 | -0.338 ± 0.051 |
| CA A16C G24T T30A T104A T110A T113A | -0.532 ± 0.028 | -0.543 ± 0.56 |
| TA A16C G24T T32G A33C T76A A77G C87T A96C T110A T113A | -1.08 ± 1.6 | -0.54 ± 0.44 |
| TA A22T G24T T31C A33C A70C T76A T86G A102T T111C T113C | -0.793 ± 0.32 | -0.813 ± 0.39 |
| TA A16C G24T T32G A33C A70C T76A T84A C87A A96C T112G T113C | -0.915 ± 1.2 | -0.234 ± 0.35 |
| CG A1T A2T T3A G4C T5A | -0.0748 ± 0.54 | 0.103 ± 0.061 |
| CA A96C T112G T113C | -0.564 ± 0.17 | -0.326 ± 0.1 |
| TA A16C G24T T32G A33C T76A T78G C87A A96C T110A T113A | -0.283 ± 0.56 | -0.233 ± 0.26 |
| TA A23G G24T A33T A70C T76A T84A C87A T104G T113A | -0.16 ± 0.29 | -0.158 ± 0.26 |
| CA G24A T30A A96C T112G T113C | 0.199 ± 0.4 | 0.0766 ± 0.11 |

| Variant | relative integration efficiency (log2) [1] | relative integration efficiency (log2) [2] |
| --- | --- | --- |
| CG A2T T3A | 0.399 ± 0.43 | 0.191 ± 0.092 |
| TG A16C G24T T30A T76A T78A T84A C87A | 0.0694 ± 0.32 | 0.372 ± 0.36 |
| TA G24A T30A A70C T76A T84A C87A A102T T111C T113C | -0.133 ± 0.92 | -0.0645 ± 0.27 |
| TA A70C T76A T84A C87A A96C T112G T113C | -0.389 ± 0.085 | -0.122 ± 0.12 |
| GG | -0.397 ± 0.89 | -0.0172 ± 0.13 |
| CA A23G G24T A33T T104G T113A | 0.0933 ± 0.62 | -0.0946 ± 0.2 |
| TA A16C G24T T32G A33C T76A A77G C87T T104G T113A | -0.746 ± 0.94 | -1.52 ± 0.61 |
| CG A11T T12A | -1.18 ± 0.28 | -0.325 ± 0.19 |
| TA A23G G24T A33T T76A A77G C87T T104G T113A | 0.309 ± 0.37 | -0.339 ± 0.36 |
| TA G24A T30A A70C T76A T84A C87A T104A T110A T113A | -0.0484 ± 0.45 | -0.389 ± 0.28 |
| CA G24A T30A T104A T110A T113A | -0.0948 ± 0.19 | -0.387 ± 0.2 |
| CA A16C G24T T32G A33C T104A T110A T113A | -0.927 ± 0.11 | -0.976 ± 0.39 |
| CA A23G G24T A33T A96C T110A T113A | -0.448 ± 0.74 | -0.516 ± 0.28 |
| TA A23G G24T A33T A70C T76A T84A C87A T104A T110A T113A | -0.119 ± 0.32 | -0.0493 ± 0.28 |
| TA A70C T76A T86G T104A T110A T113A | 0.0387 ± 0.67 | -0.344 ± 0.23 |
| TA A16C G24T T32G A33C T76A T78G C87A A96C T112G T113C | -0.523 ± 0.65 | -0.344 ± 0.18 |
| TA A70C T76A T84A C87A T104A T110A T113A | 0.319 ± 0.13 | -0.146 ± 0.28 |
| TA T76A T78A T84A C87A A102T T111C T113C | -0.0132 ± 0.72 | 0.244 ± 0.16 |
| CG A1T A2T T3A G4C | 0.144 ± 0.82 | 0.164 ± 0.1 |

| Variant | relative integration efficiency (log2) [1] | relative integration efficiency (log2) [2] |
| --- | --- | --- |
| CC A23T G24C A77T T78A T104A | -0.642 ± 0.69 | -0.611 ± 0.28 |
| CC A22T A23T G24C T76A A77T T78A A102T T104A | -0.143 ± 0.92 | -0.196 ± 0.36 |
| CC A23T A77T | 0.131 ± 0.37 | -0.225 ± 0.1 |
| CG A16T C17G C18G A19T | -1.18 ± 1.3 | -1.61 ± 0.74 |
| TA A16C G24T T32G A33C T76A T78A T84A C87A T104G T113A | -0.166 ± 0.52 | -0.296 ± 0.42 |
| CA A16C G24T T32G A33C A96C T110A T113A | -1.02 ± 1.2 | -0.362 ± 0.31 |
| TG A16C G24T T32G A33C T76A T78G C87A | 0.456 ± 0.7 | 0.525 ± 0.38 |
| TA A70C T76A T84A C87A A102T T111C T113C | 0.619 ± 0.14 | 0.128 ± 0.4 |
| CG A15T A69T A95T | -1.55 ± 0.76 | -1.31 ± 0.47 |
| TA A16C G24T T32G A33C A70C T76A T86G A96C T112G T113C | -1.11 ± 0.096 | -0.726 ± 0.16 |
| TA A22T G24T T31C A33C T76A T78G C87A A96C T112G T113C | -0.491 ± 0.49 | -0.16 ± 0.22 |
| TA G24A T30A A70C T76A T86G A96C T112G T113C | 0.18 ± 0.5 | 0.313 ± 0.07 |
| TG A16C G24T T30A A70C T76A T84A C87A | -0.916 ± 0.88 | -0.362 ± 0.11 |
| CC | 0.321 ± 0.75 | -0.0693 ± 0.024 |
| CG | -0.0136 ± 0.21 | -0.00322 ± 0.1 |
| TA G24A T30A A70C T76A T86G T104G T113A | -0.0684 ± 0.51 | -0.533 ± 0.11 |
| CA A22T G24T T31C A33C A102T T111C T113C | -0.528 ± 0.39 | -0.843 ± 0.57 |
| TA T76A T78G C87A T104A T110A T113A | 0.215 ± 0.49 | -0.291 ± 0.22 |
| TA A16C G24T T32G A33C T76A T78A T84A C87A A96C T112G T113C | -0.572 ± 0.31 | -0.447 ± 0.34 |
